Consider one molecule from patent US20140220033A1, “Administration of an Anti-Activin-A Compound to a Subject” (Santa Maria Biotherapeutics, Inc., priority 2013, published 2014).

Assay [1] deals with DNA fragmentation (apoptosis) in TOV-21G tumors. Nature of the assay: TUNEL assay in TOV-21G xenograft tumor sections. The format is in vivo, mouse. Particulars: FIG. 15C. How it is done:
(§1) 5×10^6 TOV-21G ovarian cancer cells were implanted subcutaneously into individual female athymic nu/nu mice (Harlan). Treatment was initiated at day 12 after tumor implantation, when the average tumor volume reached approximately 150 mm^3. The mice received PBS, sActRIIB (30 mg/kg, SC, 1×/week) or activin-A antibody (30 mg/kg, SC, 2×/week). In a separate chemotherapy combination experiment, the mice were treated with PBS, sActRIIB (10 mg/kg, SC, 1×/week), 5-FU (50 mg/kg, IP, 3 cycles, 4 daily injections per cycle) or sActRIIB and 5-FU combination at the same doses above.
Cell apoptosis in TOV-21G tumors was analyzed by measuring the amounts of fragmented DNA in the tumor sections using the DeadEnd Fluorometric TUNEL System following the manufacturer's recommended protocols (Promega, G3250). The fluorescein-12-dUTP-labeled DNA was visualized by Nikon fluorescence microscopy.

Another assay concerns Ang-1 mRNA. Nature of the assay: Ang-1 mRNA in cell cultures (real-time RT-PCR). As to conditions: BAEC, MRC-5 and CCD-Lu cultures treated with recombinant activin-A, without or with sActRIIB; FIG. 16B. The format is cell-based, human, bovine.
A further assay relates to Ang-1. Nature of the assay: Ang-1 release into culture medium (ELISA). The format is cell-based, human. As to conditions: MRC-5 and CCD-Lu cells treated with activin-A, without or with sActRIIB; FIG. 17B. How it is done: The serum VEGF levels in inh-KO mice were measured by using immunoassay kit (R&D Systems), and the levels of human VEGF and Ang-1 in cell line culture medium were quantified using ELISA kits purchased from Invitrogen (VEGF) and R&D Systems (Ang-1), by following the manufacturers' recommended protocols.

Assay [2] concerns Smad2 signaling (phospho-Smad2). Nature of the assay: Western blot of phospho-Smad2 in tumors of inh-KO mice. The format is in vivo, mouse. Particulars: increase over WT controls, FIG. 5B. How it is done: (§2) 12-week-old female and 8-week-old male inh-KO mice with fully established ovarian or testicular tumors received a single injection of PBS or sActRIIB (30 mg/kg, SC). As a control, age-matched wild-type littermates received a single injection of PBS. Ovarian and testicular organ weights were determined by necropsy 14 days after the injection.
(§3) Protein extracts were prepared from cell cultures or tissues in T-PER tissue protein extraction reagent (Pierce) containing a mixture of protease inhibitors (Roche). A pool of 50 μg total protein for each group containing equal amounts of protein extract isolated from individual animals was separated by NuPAGE 4-12% Bis-Tris gel (Invitrogen) and transferred to PVDF. The membranes were probed with primary antibodies against total Smad2, p-Smad2 or E-cadherin (1:1000; Cell Signaling), endoglin, osteopontin (1:500; R&D Systems), IGFBP-1, IGFBP-2 (1:500; Abcam) followed by HRP-conjugated secondary antibody (1:2000; Cell Signaling). The membranes were stripped and re-probed with antibody against α-tubulin (1:1000; Cell Signaling).
(In general: Immunoblotting shows a protein as a band on a membrane.)

Assay [3] can be described thus: Body weight of TOV-21G xenograft-bearing mice. Particulars: TOV-21G xenograft-bearing athymic nude mice; during the course of the experiment; vehicle controls lost 10%. The format is in vivo, mouse. The procedure:
In another experiment, athymic nude mice received TOV-21G xenografts in the abdominal flank. After 14 days, subcutaneous hu-sActRIIB-Fc was administered weekly alone or in combination with 5-FU.

Assay [4] has as its system VEGF. Nature of the assay: VEGF immunostaining in TOV-21G xenograft tumor sections. The format is in vivo, mouse. As to conditions: treated vs untreated sections (strong immunostaining); FIG. 15A. How it is done:
as §1
Zinc-formalin fixed paraffin tumor tissue sections of 4 μm in thickness were prepared. The sections were subjected to antigen retrieval by microwave 3 min in Unmask solution (Vector H-3300) followed by incubation in 10 μg/ml Proteinase-K for 20 min and in 1% H2O2 in dH2O for 10 min at room temperature. The sections were further incubated in 0.1% Tween-20 in PBS for 3 min to permeabilize the cell membrane and in goat serum for 30 min to block non-specific binding. The sections were then incubated at room temperature with specific primary antibody for 3 hours followed by incubation in biotinylated or fluorescently labeled secondary antibody. […] The immunostained tissue sections were analyzed and photographed using a Nikon Eclipse 90i microscope equipped with DS-Ril camera. […]

The test system of assay [5] is ovarian tumors in inh-KO mice. Description: Ovarian tumor mass in inh-KO mice (necropsy). Particulars: 12-week-old female inh-KO mice; single dose 30 mg/kg SC; necropsy 14 days after injection; FIG. 3A, 3B. It counts as in vivo, mouse. The procedure:
as §2

Assay [6] deals with G361 human melanoma xenografts. Description: G361 human melanoma xenograft growth in nude mice. It counts as in vivo. As to conditions: sActRIIB 20 mg/kg SC 1x/week from day 14, FIG. 19. How it is done: 5×10^6 G361 melanoma cells and 5637 bladder carcinoma cells, respectively, were inoculated SC into individual athymic nu/nu mice (Harlan Inc). Treatment was initiated 4 days after 5637 implantation and 14 days after G361 implantation, when the tumor volumes reached 130 mm^3−150 mm^3 5637-implanted mice received PBS or activin-A antibody (10 mg/kg, SC, 2×/week). G361-implanted mice received PBS or sActRIIB (20 mg/kg, SC, 1×/week).
For all xenograft experiments, the tumor sizes were measured longitudinally by using an electronic caliper Immediately prior to the 1st dose, the tumor-bearing mice were randomized to ensure even distribution in tumor sizes across different groups. Tumor volumes (mm^3) were calculated as tumor length (mm)×tumor width (mm)×tumor height (mm) Tumor weights were determined by necropsy.
A general note: Xenograft models place foreign cells or tissue in a host animal.

Assay [7] has as its system VEGF. Nature of the assay: VEGF immunostaining in gonadal tumor sections of inh-KO mice. The format is in vivo, mouse. As to conditions: ovarian and testicular tumors of inh-KO mice; FIG. 8B. How it is done:
as §2
Zinc-formalin fixed paraffin tumor tissue sections of 4 μm in thickness were prepared. The sections were subjected to antigen retrieval by microwave 3 min in Unmask solution (Vector H-3300) followed by incubation in 10 μg/ml Proteinase-K for 20 min and in 1% H2O2 in dH2O for 10 min at room temperature. The sections were further incubated in 0.1% Tween-20 in PBS for 3 min to permeabilize the cell membrane and in goat serum for 30 min to block non-specific binding. The sections were then incubated at room temperature with specific primary antibody for 3 hours followed by incubation in biotinylated or fluorescently labeled secondary antibody. Substrate developed in Vector SG kit (SK-4700) or DAB and nuclear-counterstained in Vector Fast Red (H-3403) or in hematoxylin. The immunostained tissue sections were analyzed and photographed using a Nikon Eclipse 90i microscope equipped with DS-Ril camera. […]

A further assay concerns endoglin. Description: Western blot of endoglin in ovarian tumors of inh-KO mice. It counts as in vivo, mouse. As to conditions: FIG. 8D. The procedure:
as §2, §3

B1: sActRIIB: extracellular domain of human activin type-2B receptor fused to IgG2 Fc, expressed in CHO cells; sequence in the 26th table (protein)
chain: ETRWCIYYNANWELERTNQGLERCEGEQDKRLHCYASWRNSSGTIELVKKGCWLDDFNCYDRQECVATEENPQVYFCCCEGNFCNERFTHLPEAGGPEVTYEPPPTAPTGGGGSVECPPCPAPPVAGPSVFLFPPKPKDTLMISRTPEVTCVVVDVSHEDPEVQFNWYVDGVEVHNAKTKPREEQFNSTFRVVSVLTVVHQDWLNGKEYKCKVSNKGLPAPIEKTISKTKGQPREPQVYTLPPSREEMTKNQVSLTCLVKGFYPSDIAVEWESNGQPENNYKTTPPMLDSDGSFFLYSKLTVDKSRWQQGNVFSCSVMHEALHNHYTQKSLSLSPGK
modifications: left off: a dimerising Fc or GST
For B1, the “DNA fragmentation (TUNEL) in TOV-21G tumors” value in assay [1] is given as “profound increases”. Moreover, the “levels of Ang-1 mRNA” value in the assay on Ang-1 mRNA was “prevented this induction”. Also, in the assay on Ang-1, the “release of Ang-1 into the culture medium” value is on record as “blocked completely”. Moreover, in assay [2], the “phospho-Smad2 in tumor tissues (Western blot)” value is recorded as “eliminated this increase in phospho-Smad2”. Moreover, the body weight increase in assay [3] is listed as 26%. For the same molecule, in the assay on VEGF [4], the “VEGF immunostaining in TOV-21G tumor sections” value is listed as “virtually none”. The ovarian tumor mass result in assay [5] was “regressed rapidly to the sizes seen in the WT control mice”. In addition, the “growth rates and sizes of G361 melanoma xenografts” value in assay [6] was “significantly decreased the growth rates and sizes”. In addition, in the assay on VEGF [7], the “VEGF immunoreactivity in tumor sections” value is “completely abolished the VEGF and Ang-1 inductions”. Besides, in the assay with endoglin, the “endoglin induction (Western blot)” value is “abolished completely”.
